{
  "source": "paper PMC2248197",
  "biological_target": "Xop411 p09, major capsid subunit (major coat protein) (Xanthomonas oryzae phage Xop411)",
  "experiment": "SDS-PAGE of virion proteins with LC-MS/MS of the bands",
  "note": "Values joined by “and” are separate entries in the source; they are usually repeats but may differ in a detail not shown here. Equal entries are not always repeated.",
  "data": [
    {"substance": "Xop411 p09, major capsid subunit (major coat protein) (natural protein)", "values": [
      {"measurement": "stoichiometry N", "value": "2 subunits and 6 subunits"}
    ]}
  ]
}
